Assay results published in paper PMC10680678.
pKd: −log10 of the molar value. Like-named read-outs stand apart in the source and are kept apart here.

Tests used:
[1] = biological target: Mouse CD44 extracellular domain (mouse) (UniProt P15379); assay: ITC
[2] = biological target: Human CD44 extracellular domain (human) (UniProt P16070); assay: ITC
[3] = biological target: Biotinylated avi-tagged human TβRI (human) (UniProt P36897); assay: SPR
[4] = biological target: Biotinylated avi-tagged human TβRI (human) (UniProt P36897); assay: SPR; remark: listed apart in the source
[5] = biological target: Biotinylated avi-tagged human TβRII (human) (UniProt P37173); assay: SPR
UniProt P37173, sequence (P37173 23-166): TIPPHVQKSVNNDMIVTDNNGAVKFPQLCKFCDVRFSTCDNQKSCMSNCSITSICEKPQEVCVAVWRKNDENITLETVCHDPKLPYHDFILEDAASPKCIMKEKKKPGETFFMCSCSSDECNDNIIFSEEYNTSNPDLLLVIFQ

UniProt P36897, sequence (P36897 34-126): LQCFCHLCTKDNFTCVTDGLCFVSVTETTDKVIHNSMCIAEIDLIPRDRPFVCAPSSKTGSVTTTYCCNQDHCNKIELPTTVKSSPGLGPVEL
UniProt P16070, sequence (P16070 21-649): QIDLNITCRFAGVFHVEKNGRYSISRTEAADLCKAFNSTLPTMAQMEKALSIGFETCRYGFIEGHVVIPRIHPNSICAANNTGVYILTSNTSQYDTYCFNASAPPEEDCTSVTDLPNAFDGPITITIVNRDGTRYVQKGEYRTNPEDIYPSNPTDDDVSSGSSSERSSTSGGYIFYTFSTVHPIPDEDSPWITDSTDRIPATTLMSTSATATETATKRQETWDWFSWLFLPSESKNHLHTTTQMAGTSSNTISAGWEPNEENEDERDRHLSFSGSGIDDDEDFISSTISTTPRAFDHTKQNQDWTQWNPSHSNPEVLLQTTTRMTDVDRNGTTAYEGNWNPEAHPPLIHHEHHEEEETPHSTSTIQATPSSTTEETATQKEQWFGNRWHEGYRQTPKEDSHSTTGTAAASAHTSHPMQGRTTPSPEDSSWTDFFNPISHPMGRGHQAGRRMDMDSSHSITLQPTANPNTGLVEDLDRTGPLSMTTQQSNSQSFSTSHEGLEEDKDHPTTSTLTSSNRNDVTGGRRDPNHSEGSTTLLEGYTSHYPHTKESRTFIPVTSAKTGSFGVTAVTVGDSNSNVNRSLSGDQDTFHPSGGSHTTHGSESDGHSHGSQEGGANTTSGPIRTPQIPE
UniProt P15379, sequence (P15379 23-685): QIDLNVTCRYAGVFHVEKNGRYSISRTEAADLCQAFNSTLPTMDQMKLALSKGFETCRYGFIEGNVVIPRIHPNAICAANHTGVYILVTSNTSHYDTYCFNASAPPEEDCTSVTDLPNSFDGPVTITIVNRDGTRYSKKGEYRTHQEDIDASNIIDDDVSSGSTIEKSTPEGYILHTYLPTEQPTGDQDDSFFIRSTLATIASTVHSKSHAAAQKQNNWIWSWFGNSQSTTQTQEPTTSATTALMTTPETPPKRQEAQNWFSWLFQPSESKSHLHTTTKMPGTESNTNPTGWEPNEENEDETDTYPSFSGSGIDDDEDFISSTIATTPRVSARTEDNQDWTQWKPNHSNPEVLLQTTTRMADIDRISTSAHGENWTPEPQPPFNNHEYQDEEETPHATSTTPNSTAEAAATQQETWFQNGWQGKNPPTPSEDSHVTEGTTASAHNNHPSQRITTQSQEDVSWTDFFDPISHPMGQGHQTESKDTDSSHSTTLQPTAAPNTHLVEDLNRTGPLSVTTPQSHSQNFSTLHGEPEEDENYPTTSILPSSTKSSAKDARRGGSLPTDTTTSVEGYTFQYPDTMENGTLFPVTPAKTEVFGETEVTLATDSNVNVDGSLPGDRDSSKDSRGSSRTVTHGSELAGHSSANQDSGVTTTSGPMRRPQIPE

Substance	pKd [1]	pKd [2]	pKd [3]	pKd [4]	pKd [5]
TGM1 D4-5 fragment (domain or fragment)	7.21	6.85			
TGM1 full-length recombinant protein (natural protein)			7.15		
TGM4 D4-5 recombinant protein (domain or fragment)	7.70	7.25			
TGM4 full-length recombinant protein (natural protein)			8.49	8.30 to 8.52	3.94
